Assay results as given in the RNAGym collection of RNA variant scans (doi:10.7554/elife.80360).

B1: Twister Ribozyme (parent)
chain: AACACUGCCAAUGCCGGUCCCAAGCCCGGAUAAAAGUGGAGGGGGCGG

Variants of: B1
Test: self-cleavage, relative activity (ratio to wild type); higher = more cleavage; co-transcriptional
With AUCACUGCCAAUGCCGGUCCCAAGCCCGGAUAAAAGUGGAGGGAGCGG [A2U G44A] the self-cleavage was 0.615.
For AACACCGCCAAUGCCGGUCCCAAGCCCGGAUAAAAGUGGAGGCGGCGG [U6C G43C], the self-cleavage was 0.128.
AACAGUGCCAAUGCCGGUCCCAACCCCGGAUAAAAGUGGAGGGGGCGG [C5G G24C] gave a self-cleavage of 0.118.
Variant AAUACGGCCAAUGCCGGUCCCAAGCCCGGAUAAAAGUGGAGGGGGCGG [C3U U6G] has a self-cleavage of 0.106.
For AACACUGCCGAUGCCGGUCCCAAGCCCGGAUAAAAGUGGAGGGAGCGG [A10G G44A], the self-cleavage was 0.881.
With AACACUGCCAAUGCCGGUCCCAAGGCCGGAUAAAAGUGCAGGGGGCGG [C25G G39C] the self-cleavage was 0.109.
AACACUGCCAAUGCAGGUCCCAAGCCCGGAUAAAAGUGGAGGGGCCGG [C15A G45C] gave a self-cleavage of 0.352.
Variant AACUCUGCCAAUGCCGGGCCCAAGCCCGGAUAAAAGUGGAGGGGGCGG [A4U U18G] has a self-cleavage of 0.0369.
Variant AACACUGCCAAUGCCGGUCCAAAGCCCGGAUAAAUGUGGAGGGGGCGG [C21A A35U] has a self-cleavage of 0.104.
Work on AACACUGCCAAUGCCGAUCCCAAGCCCGGAUAAAAGUCGAGGGGGCGG [G17A G38C] yielded a self-cleavage of 0.54.
Variant AACACUGCCAAUGCCGGUCCCAAGCCCGGAUGAAAGUGGAGGUGGCGG [A32G G43U] has a self-cleavage of 0.439.
AACACUGCCAAUGCAGGUCCCAAGCCCGGAUAAAAGAGGAGGGGGCGG [C15A U37A] showed a self-cleavage of 0.129.
CACACUGACAAUGCCGGUCCCAAGCCCGGAUAAAAGUGGAGGGGGCGG [A1C C8A] showed a self-cleavage of 0.196.
Variant AACACUGCGAAUGCCGGCCCCAAGCCCGGAUAAAAGUGGAGGGGGCGG [C9G U18C] has a self-cleavage of 0.0886.
AACACUGCCAAUGCCGGUCCCAAGCCCGGAUCAAAGUGGAGAGGGCGG [A32C G42A] showed a self-cleavage of 0.289.
With AACACUGCCAAUGCCGGUCCCAAGCCCGGAUAAUAGUGGAGGGGUCGG [A34U G45U] the self-cleavage was 0.59.
In the case of AACAAUGCCAAUGCCGGUCCCAAGCCCGGACAAAAGUGGAGGGGGCGG [C5A U31C], the self-cleavage is reported as 0.653.
In the case of AACACUUCCAAUGCCGGUCCCAAGCCCGGUUAAAAGUGGAGGGGGCGG [G7U A30U], the self-cleavage is reported as 0.0836.
Variant AACACUGCCAAUGCCGGUCCCAAGCCCGGAUAAAAGAGGAGGGGACGG [U37A G45A] has a self-cleavage of 0.835.
Variant AACAGGGCCAAUGCCGGUCCCAAGCCCGGAUAAAAGUGGAGGGGGCGG [C5G U6G] has a self-cleavage of 0.232.
Work on AACACUCCCAAUGCCGGUCCCAAGCCCGGAUAAUAGUGGAGGGGGCGG [G7C A34U] yielded a self-cleavage of 0.067.
AACACUGCCAACGCCGGCCCCAAGCCCGGAUAAAAGUGGAGGGGGCGG [U12C U18C] showed a self-cleavage of 0.564.
AACACUGCCAUUGCCGGUCCCAAGCCCCGAUAAAAGUGGAGGGGGCGG [A11U G28C] showed a self-cleavage of 0.801.
AACACUGCCAAUGCCGAUCCCAAGCCCGGAUAAAAGUGGAGAGGGCGG [G17A G42A] showed a self-cleavage of 0.107.
With AACACUGCCAGUCCCGGUCCCAAGCCCGGAUAAAAGUGGAGGGGGCGG [A11G G13C] the self-cleavage was 0.345.
In the case of AACACUGCCAAUGCCGGUCCCAAGCCCGGAGAAACGUGGAGGGGGCGG [U31G A35C], the self-cleavage is reported as 1.06.
For AACACUGCCAAUGACGGUCCCAAGCCCGGACAAAAGUGGAGGGGGCGG [C14A U31C], the self-cleavage was 0.913.
AACACUGGCAAUGCCGGUCCCAAGCCGGGAUAAAAGUGGAGGGGGCGG [C8G C27G] showed a self-cleavage of 0.0686.
AACACUGCCAAUGCCGGUCCCAAGCGCGGAUAAAAGUAGAGGGGGCGG [C26G G38A] gave a self-cleavage of 0.0967.
AACACUGCCAAUGCCGGUCCCAAGCCAGGAUAAAAGUGCAGGGGGCGG [C27A G39C] gave a self-cleavage of 0.0948.
Work on AACACUGCCAAUGCCGGUCCCAAGCCCGGAUAAAAGUGGAGAGGGUGG [G42A C46U] yielded a self-cleavage of 0.349.
Work on AACACUGCCAAUGCCGGUCCCAAGCCCGGAUAAUAGUGGAGGAGGCGG [A34U G43A] yielded a self-cleavage of 0.209.
Work on AACACUGCCAAUGCCGGUCCCAAGCUCGGAUAACAGUGGAGGGGGCGG [C26U A34C] yielded a self-cleavage of 0.133.
For AACAUUGCCAAUGCCGUUCCCAAGCCCGGAUAAAAGUGGAGGGGGCGG [C5U G17U], the self-cleavage was 0.116.
For AACAGUGCCAACGCCGGUCCCAAGCCCGGAUAAAAGUGGAGGGGGCGG [C5G U12C], the self-cleavage was 0.896.
AACACUGCCAAUGCCGGUCCCAAGCCCGGAUAAAAGUGGAACGGGCGG [G41A G42C] gave a self-cleavage of 0.094.
With AACACUGCCAAUGCCGGUCCCUAGCCCGGAUAAAAGUGGAGAGGGCGG [A22U G42A] the self-cleavage was 0.126.
Work on AACACUGCCAAUGCCGGUCCCGAGCCCGGAUAAAAAUGGAGGGGGCGG [A22G G36A] yielded a self-cleavage of 0.0781.
For AACACUGGCAAUGCCGGUCCCAAGCCCGGAUAAAAGUGGCGGGGGCGG [C8G A40C], the self-cleavage was 0.157.
Variant AACUCUGCCAAUGCCGGUCCCAAGCCCGGAUAAAAUUGGAGGGGGCGG [A4U G36U] has a self-cleavage of 0.0439.
Work on AACACUGCCAAUGCCUGUCCGAAGCCCGGAUAAAAGUGGAGGGGGCGG [G16U C21G] yielded a self-cleavage of 0.101.
AACACUGCCAAUGCCGGUUCCAAGCCCGGAUAAACGUGGAGGGGGCGG [C19U A35C] gave a self-cleavage of 1.05.
Work on AACACUGCCAAUGCCGGUCCCAAGCCCGGAUAAAAGUGGAGGAGGCUG [G43A G47U] yielded a self-cleavage of 0.175.
For AACACUGCCAAUGCCGGUCCCAAGCCCGGAUAAAAGUGGAGGGUUCGG [G44U G45U], the self-cleavage was 0.922.
With AACACUGCCAAUGCCGGUUCCAAGCCCGGAUAAAAGUGGAGGGGGCGU [C19U G48U] the self-cleavage was 0.91.
For AACACUGCCAAUGCCGAUCCCAAGUCCGGAUAAAAGUGGAGGGGGCGG [G17A C25U], the self-cleavage was 0.255.
Work on AACACUGCCAAUGCCGGUCCCAAGCCCCGAUAAAAGUGUAGGGGGCGG [G28C G39U] yielded a self-cleavage of 0.173.
With AACACGGCCAAUGUCGGUCCCAAGCCCGGAUAAAAGUGGAGGGGGCGG [U6G C14U] the self-cleavage was 0.608.
For AACACUGCCAGUGCCGGUCCCAAACCCGGAUAAAAGUGGAGGGGGCGG [A11G G24A], the self-cleavage was 0.0843.
Work on AACUCUGCCAAUGCCGGUCCCAAGCCCGGAUAAAAGUGGAGGGGGCUG [A4U G47U] yielded a self-cleavage of 0.0997.
In the case of AACAAUGCCAAUGCCGGUCCCAAGCCCGGAUAAAAGUGGAAGGGGCGG [C5A G41A], the self-cleavage is reported as 0.107.
Variant AACACUGCCAAUGCCGGUCCCAAGCCCGGAUAAAACUGGAGGGGACGG [G36C G45A] has a self-cleavage of 0.37.
AACACUGCCAUUGCCGGUUCCAAGCCCGGAUAAAAGUGGAGGGGGCGG [A11U C19U] gave a self-cleavage of 0.933.
In the case of AACACUGCCAUUGCCGGUGCCAAGCCCGGAUAAAAGUGGAGGGGGCGG [A11U C19G], the self-cleavage is reported as 0.616.
